Experimental data: patent US11719696B2, “Methods and compounds for diagnosing threonyl-tRNA synthetase-associated diseases and conditions” (The University of Vermont and State Agricultural College, priority 2012, dated 2023)

Key:
[1] = system: chorioallantoic membrane (CAM); assay: Chick chorioallantoic membrane (CAM) assay; type: in vivo, chicken
Experimental: Chick Chorioallantoic Membrane Assay—Fertilized chicken eggs (Sunrise Farms, Catskill, N.Y.) day 1-2 post-laying were incubated in a humidified incubator at 37° C. for 72 h. Cleaned eggs were cracked and plated in a sterile 10 cm^2 tissue culture-treated dish and incubated at 37° C. for another 7 days. On developmental day 10, 1 mm sterile gelatin sponge pieces (Surgifoam®; Johnson & Johnson Wound Management, Somerville, N.J.) were placed within the outer one-third of the membrane between large vessels. 40 μg/ml human bFGF and 2 μg/ml human VEGF were used as pro-angiogenic control compounds; 100 μg/mL retinoic acid (Sigma-Aldrich, St. Louis, Mo.) diluted in phosphate-buffered saline (PBS) was used as an angiostatic control. All compounds were applied in 10 μl to the CAM every 24 h for 72 h. Images were taken using a Leica MZ6 stereomicroscope every 24 h. Compounds were scored according to a modified version of Intensity Scoring as previously described (Ribatti, Nico et al. 2006). Briefly, each experimental condition was given a blinded score from 0-5 based on the change in the extent of vessel convergence and formation in proximity to the sponge from day 0 to day 3. Total score is averaged individual experimental condition scores from at least 15 replicates.
Fertilized chicken embryos were cultured ex-ova and, starting at developmental day 10, agents were applied daily to gelfoam sponges on the CAM. Images were recorded daily over 72 h and scored blindly according to a modified version Intensity Scoring as previously described (Ribatti, Nico, 2006). Additional details regarding methods are provided in the Methods and Materials section of Example 1.

HUVECs [2] = assay: Endothelial cell proliferation assay (alamarBlue); type: cell-based, Human; conditions: HUVECs in low serum (0.2% FBS) media
Experimental: Endothelial Cell Proliferation Assay—The […] alamarBlue® (Invitrogen) reagent was used to assess cell proliferation (Ahmed, Gogal et al. 1994). HUVECs were seeded in a 96-well dish (1×10^3 cells/well) and grown for 48 h in EGM®-2 media. Cells were incubated in 0.2% FBS EGM®-2 media or EGM®-2 complete media as indicated; VEGF (50 ng/ml) and media alone served as controls. After 48 h, 72 h, or 96 h in culture, 10 μl/well premixed alamarBlue® (Invitrogen) was added and after 3 h at 37° C. the amount of reduced alamarBlue® was quantified by fluorescence (excitation at 530 nm, emission at 590 nm) on a microplate reader (Synergy™ HT, BioTek, Winooski, Vt.).

HUVECs [3] = assay: VEGF secretion by ELISA; type: cell-based, Human; conditions: purified recombinant TARS added to cell media, 24 h
Experimental: ELISA and Lactate Dehydrogenase Assays—Confluent HUVEC cultures (passage 4) were incubated at 37° C. in Clonetics® EGM®-2 modified with 0.2% fetal bovine serum with the addition of 50 ng/ml human VEGF or 50 ng/ml human TNF-α for 6 h as indicated. Culture media supernatants were tested for levels of secreted TARS protein using the Threonyl tRNA Synthetase (TARS) ELISA Kit (USCN Life Science, Wuhan, Hubei, PRC) according to manufacturer's instructions. Cell membrane integrity was confirmed using the lactate dehydrogenase assay CytoTox-ONE™ Homogeneous Membrane Integrity Assay (Promega, Madison, Wis.) according to manufacturer's instructions and reported as percent cytotoxicity relative to a lysis control. Levels of secreted VEGF were measured using the Human VEGF ELISA kit (Thermo Scientific) per manufacturer's instructions.

[4] = system: Human umbilical vein endothelial cells (HUVECs); assay: In vitro endothelial tube formation assay; type: cell-based; conditions: 100 nM purified recombinant protein in low-serum media (0.2% FBS), 6 h
Experimental: In vitro Tube Formation Assay—Tube formation assays were performed as described (Arnaoutova and Kleinman 2010; Cassavaugh, Hale et al., 201). Human Umbilical Vein Endothelial Cells (HUVECs) were seeded in 48-well plates (1.5×10^4 cells/well) coated with 100 μl of Matrigel™ Basement Membrane Matrix Growth Factor Reduced (BD Biosciences, San Jose, Calif.) and incubated in Clonetics® EGM®-2 complete media (Lonza, Annandale, N.J.) or EGM®-2 with reduced serum (0.2% fetal bovine serum). Cells were incubated at 37° C. for 6 h then fixed in 10% formalin. Fixed samples were imaged by phase-contrast microscopy or stained with Oregon Green 488 Phalloidin (Molecular Probes, Eugene, Oreg.) then imaged with fluorescence microscopy (2× objective). Number of tubes and tube lengths (in pixels) were quantified using the Simple Neurite Tracer (Longair, Baker et al. 2011) plug-in on ImageJ software (NIH). Statistical analysis of one-way ANOVA was performed with GraphPad Software. Multiple comparisons were performed using the Tukey Test.

B1: TARS: N-terminal His6-tagged human threonyl-tRNA synthetase expressed and purified from E. coli (protein, UniProt P26639 1-723, looked up)
Threonine--tRNA ligase 1, …: MFEEKASSPSGKMGGEEKPIGAGEEKQKEGGKKKNKEGSGDGGRAELNPWPEYIYTRLEMYNILKAEHDSILAEKAEKDSKPIKVTLPDGKQVDAESWKTTPYQIACGISQGLADNTVIAKVNNVVWDLDRPLEEDCTLELLKFEDEEAQAVYWHSSAHIMGEAMERVYGGCLCYGPPIENGFYYDMYLEEGGVSSNDFSSLEALCKKIIKEKQAFERLEVKKETLLAMFKYNKFKCRILNEKVNTPTTTVYRCGPLIDLCRGPHVRHTGKIKALKIHKNSSTYWEGKADMETLQRIYGISFPDPKMLKEWEKFQEEAKNRDHRKIGRDQELYFFHELSPGSCFFLPKGAYIYNALIEFIRSEYRKRGFQEVVTPNIFNSRLWMTSGHWQHYSENMFSFEVEKELFALKPMNCPGHCLMFDHRPRSWRELPLRLADFGVLHRNELSGALTGLTRVRRFQQDDAHIFCAMEQIEDEIKGCLDFLRTVYSVFGFSFKLNLSTRPEKFLGDIEVWDQAEKQLENSLNEFGEKWELNSGDGAFYGPKIDIQIKDAIGRYHQCATIQLDFQLPIRFNLTYVSHDGDDKKRPVIVHRAILGSVERMIAILTENYGGKWPFWLSPRQVMVVPVGPTCDEYAQKVRQQFHDAKFMADIDLDPGCTLNKKIRNAQLAQYNFILVVGEKEKISGTVNIRTRDNKVHGERTISETIERLQQLKEFRSKQAEEEF
modifications: N-terminal His6 tag
notes: N-terminal His6-tagged human threonyl-tRNA synthetase expressed and purified from E. coli
- sensitivity of the protein's CAM angiogenic effect to BC194 ([1]; protein co-applied with BC194): sensitive to BC194
- CAM vessel formation / vascularization on application of protein ([1]; purified protein applied daily to sponge on CAM, 72 h): stimulated vessel formation
- cell proliferation with protein (HUVECs [2]): did not exert a significant effect
- secretion of VEGF (ELISA) (HUVECs [3]): did not induce secretion of VEGF
- number of tube branches on addition of protein [4]: significantly increased the number of tube branches
